B1: Zinc finger homeobox protein 4, residues 2086 to 2141; numbered along this chain, Q86UP3 (parent)
chain: RPRTRITDDQLKILRAYFDINNSPSEEQIQEMAEKSGLSQKVIKHWFRNTLFKERQ

± gives the uncertainty stated by the source.

Variants of B1 are the subject of the data set. Kind of data set: abundance fitness (aPCA) (normalised: wild type 0, dead -1); higher = more abundant; growth selection in yeast, the domain comes from the species named. The settings on record: Homo sapiens.
For RPRTRITDDQLKILRAYFDINNSPSEEQIQECAEKSGLSQKVIKHWFRNTLFKERQ, the abundance fitness was -0.154 ± 0.084.

For RPRTRITDDQLKILRAYFDINNSPSEEQIQERAEKSGLSQKVIKHWFRNTLFKERQ, the abundance fitness was -0.911 ± 0.07.

Take RPRTRITDDQLKILRAYFDINNSPSEEQIQEKAEKSGLSQKVIKHWFRNTLFKERQ: the abundance fitness is -0.923 ± 0.13.

For the variant RPRTRITDDQLKILRAYFDINNSPSEEQIQEFAEKSGLSQKVIKHWFRNTLFKERQ, the abundance fitness is -0.547 ± 0.14.

Take RPRTRITDDQLKILRAYFDINNSPSEEQIQEQAEKSGLSQKVIKHWFRNTLFKERQ: the abundance fitness is -0.837 ± 0.14.

Take RPRTRITDDQLKILRAYFDINNSPSEEQIQEHAEKSGLSQKVIKHWFRNTLFKERQ: the abundance fitness was -0.686 ± 0.14.

Regarding RPRTRITDDQLKILRAYFDINNSPSEEQIQEDAEKSGLSQKVIKHWFRNTLFKERQ, the abundance fitness was -1.37 ± 0.26.

For RPRTRITDDQLKILRAYFDINNSPSEEQIQEEAEKSGLSQKVIKHWFRNTLFKERQ, the abundance fitness is -1.01 ± 0.15.

As for RPRTRITDDQLKILRAYFDINNSPSEEQIQEVAEKSGLSQKVIKHWFRNTLFKERQ, the abundance fitness is -0.276 ± 0.084.

On to RPRTRITDDQLKILRAYFDINNSPSEEQIQENAEKSGLSQKVIKHWFRNTLFKERQ, for which the abundance fitness is -1 ± 0.2.

For RPRTRITDDQLKILRAYFDINNSPSEEQIQEPAEKSGLSQKVIKHWFRNTLFKERQ, the abundance fitness was -1.2 ± 0.24.

Turning to RPRTRITDDQLKILRAYFDINNSPSEEQIQEWAEKSGLSQKVIKHWFRNTLFKERQ, the abundance fitness was -0.511 ± 0.083.

RPRTRITDDQLKILRAYFDINNSPSEEQIQEIAEKSGLSQKVIKHWFRNTLFKERQ: the abundance fitness was -0.244 ± 0.12.

With RPRTRITDDQLKILRAYFDINNSPSEEQIQEAAEKSGLSQKVIKHWFRNTLFKERQ, the abundance fitness is -0.55 ± 0.11.

With RPRTRITDDQLKILRAYFDINNSPSEEQIQEGAEKSGLSQKVIKHWFRNTLFKERQ, the abundance fitness was -0.672 ± 0.07.

For the variant RPRTRITDDQLKILRAYFDINNSPSEEQIQEYAEKSGLSQKVIKHWFRNTLFKERQ, the abundance fitness was -0.212 ± 0.12.

Regarding RPRTRITDDQLKILRAYFDINNSPSEEQHQEMAEKSGLSQKVIKHWFRNTLFKERQ, the abundance fitness is -0.347 ± 0.25.

Turning to RPRTRITDDQLKILRAYFDINNSPSEEQQQEMAEKSGLSQKVIKHWFRNTLFKERQ, the abundance fitness was -0.147 ± 0.12.

Consider RPRTRITDDQLKILRAYFDINNSPSEEQTQEMAEKSGLSQKVIKHWFRNTLFKERQ, for which the abundance fitness is -0.266 ± 0.1.

For the variant RPRTRITDDQLKILRAYFDINNSPSEEQCQEMAEKSGLSQKVIKHWFRNTLFKERQ, the abundance fitness is -0.149 ± 0.1.

Turning to RPRTRITDDQLKILRAYFDINNSPSEEQFQEMAEKSGLSQKVIKHWFRNTLFKERQ, the abundance fitness was -0.02 ± 0.13.

For RPRTRITDDQLKILRAYFDINNSPSEEQNQEMAEKSGLSQKVIKHWFRNTLFKERQ, the abundance fitness was -0.462 ± 0.2.

Turning to RPRTRITDDQLKILRAYFDINNSPSEEQDQEMAEKSGLSQKVIKHWFRNTLFKERQ, the abundance fitness was -0.744 ± 0.12.

On to RPRTRITDDQLKILRAYFDINNSPSEEQPQEMAEKSGLSQKVIKHWFRNTLFKERQ, for which the abundance fitness was -0.814 ± 0.14.

In the case of RPRTRITDDQLKILRAYFDINNSPSEEQEQEMAEKSGLSQKVIKHWFRNTLFKERQ, the abundance fitness is -0.025 ± 0.091.

Consider RPRTRITDDQLKILRAYFDINNSPSEEQLQEMAEKSGLSQKVIKHWFRNTLFKERQ, for which the abundance fitness is 0.002 ± 0.08.

For the variant RPRTRITDDQLKILRAYFDINNSPSEEQGQEMAEKSGLSQKVIKHWFRNTLFKERQ, the abundance fitness is -0.605 ± 0.07.

Take RPRTRITDDQLKILRAYFDINNSPSEEQYQEMAEKSGLSQKVIKHWFRNTLFKERQ: the abundance fitness is 0.048 ± 0.17.

As to RPRTRITDDQLKILRAYFDINNSPSEEQRQEMAEKSGLSQKVIKHWFRNTLFKERQ, the abundance fitness was -0.21 ± 0.068.

In the case of RPRTRITDDQLKILRAYFDINNSPSEEQMQEMAEKSGLSQKVIKHWFRNTLFKERQ, the abundance fitness was -0.081 ± 0.11.

As to RPRTRITDDQLKILRAYFDINNSPSEEQAQEMAEKSGLSQKVIKHWFRNTLFKERQ, the abundance fitness was -0.376 ± 0.075.

Regarding RPRTRITDDQLKILRAYFDINNSPSEEQKQEMAEKSGLSQKVIKHWFRNTLFKERQ, the abundance fitness is -0.226 ± 0.13.

Turning to RPRTRITDDQLKILRAYFDINNSPSEEQWQEMAEKSGLSQKVIKHWFRNTLFKERQ, the abundance fitness was -0.16 ± 0.091.

Take RPRTRITDDQLKILRAYFDINNSPSEEQIDEMAEKSGLSQKVIKHWFRNTLFKERQ: the abundance fitness was -0.495 ± 0.23.

On to RPRTRITDDQLKILRAYFDINNSPSEEQIKEMAEKSGLSQKVIKHWFRNTLFKERQ, for which the abundance fitness was 0.146 ± 0.13.

Take RPRTRITDDQLKILRAYFDINNSPSEEQITEMAEKSGLSQKVIKHWFRNTLFKERQ: the abundance fitness is -0.025 ± 0.097.

For RPRTRITDDQLKILRAYFDINNSPSEEQIAEMAEKSGLSQKVIKHWFRNTLFKERQ, the abundance fitness was -0.019 ± 0.1.

As to RPRTRITDDQLKILRAYFDINNSPSEEQIWEMAEKSGLSQKVIKHWFRNTLFKERQ, the abundance fitness is -0.349 ± 0.098.

Consider RPRTRITDDQLKILRAYFDINNSPSEEQIEEMAEKSGLSQKVIKHWFRNTLFKERQ, for which the abundance fitness was -0.154 ± 0.1.

Regarding RPRTRITDDQLKILRAYFDINNSPSEEQINEMAEKSGLSQKVIKHWFRNTLFKERQ, the abundance fitness was -0.08 ± 0.26.

In the case of RPRTRITDDQLKILRAYFDINNSPSEEQIFEMAEKSGLSQKVIKHWFRNTLFKERQ, the abundance fitness is -0.441 ± 0.24.

On to RPRTRITDDQLKILRAYFDINNSPSEEQICEMAEKSGLSQKVIKHWFRNTLFKERQ, for which the abundance fitness is -0.275 ± 0.17.

As for RPRTRITDDQLKILRAYFDINNSPSEEQIHEMAEKSGLSQKVIKHWFRNTLFKERQ, the abundance fitness is -0.072 ± 0.17.

As for RPRTRITDDQLKILRAYFDINNSPSEEQIGEMAEKSGLSQKVIKHWFRNTLFKERQ, the abundance fitness is -0.116 ± 0.079.

RPRTRITDDQLKILRAYFDINNSPSEEQILEMAEKSGLSQKVIKHWFRNTLFKERQ: the abundance fitness stood at 0.031 ± 0.088.

In the case of RPRTRITDDQLKILRAYFDINNSPSEEQISEMAEKSGLSQKVIKHWFRNTLFKERQ, the abundance fitness is -0.159 ± 0.1.

With RPRTRITDDQLKILRAYFDINNSPSEEQIIEMAEKSGLSQKVIKHWFRNTLFKERQ, the abundance fitness amounted to 0.196 ± 0.24.

The values are drawn from the Human Domainome abundance scans (Beltran et al. 2025).
